Drawing on a protein production outcome set (Wang et al. 2014), this text covers protein production for 20 sequences.

The series can be described thus: label from the status in PepcDB records.

As for “MQPPSHAPRQLAAADLAVGQVVAQREIRLDAQAFAQFAALTGDAHPIHYDAGYAQRQGLRAPIAHGLLLVAISALGATPLSAQLHDAMVAMVGVEAVFMRPVYVDETVQCVYRVAQIEHVAKGRSKTTIAVSIHTTDAPPDAARQAHCVVHLTFLLKTHLQG”, the protein production entry is recorded as “failed”.

For the sequence “MQPTSITVASYNLRNANGGDSINGNGWGQRYPVIAQIVQYHDFDIFGTQECFIHQLKDMKEALPGYDYIGVGRDDGKEKGEHSAIFYRTDKFDVIEKGDFWLSETPDVPSKGWDAVLPRICSWGHFKCKDTGFEFLFFNLHMDHIGKKARVESAFLVQDKMKELGKGKELPAILTGDFNVDQTHQSYDAFVSKGVLCDSYEKAGFRYAINGTFNDFDPNSFTESRIDHIFVSPSFQVKRYGVLTDTYRSIVGKGEKKQANDCPEEIDIKTYQARTPSDHFPVKVELEFDQRQQKLEHHHHHH”, the protein production result is given as “not failed”.

On to “MQPWTQIYTPLGSLWLSALAAAIPILFFFVALAVLRMKGHVAAAVTLALALAVAIFAYGMPAQQAFAAAGFGFAYGLWPIAWIIVTAVFLYKIVVKTGQFDVIRASVLSITDDQRLQMLLIGFAFGAFLEGAAGFGAPVAITAALLVGLGFNPLYAAGLCLIANTAPVAFGAMGIPIIVAGQVTGIDPMHIGAMAGRQLPLLSLAVPFWLVFMMDGAKGVRETWPAALVVGGSFAVTQYFTSNHIGPELPDITSALVSLISLAAFLRVWQPRSASQAAGGTVAAGGTVAMAGFGGGMGAPASRKASPYTFGQTVRAWAPFGILTAIVTVWSLAPFKALFAGNGALAGTVLKFKVPMLDQLVIKSAPIVASPKPYEAVLKLDLLSAVGTAILLTAIISAVLLRMKPSDAITTFKETLLELRRPIASIGLVLAFAFVANYSGMSSTLALLLAGTGAAFPFFSPLLGWLGVFLTGSDTSSNALFCSLQHTTAHQIGVSDTLLVAANTTGGVTGKMISPQSIAVACAATGLVGKESELFRFTVKHSLLFAAIVGVITMIQAYWLTGMIPG”, for which the protein production entry is “failed”.

With “MQQSEHFSFGEQTEIEDIGGGLKRQMLGFNHELMAVKIWFDKGAEGYVHAHRHSQVSYVVEGEFHVNVDGVIKVLTAGDSFFVPPHVDHGAVCPTGGILIDTFSPAREDFVEGLS”, the protein production entry is on record as “not failed”.

Regarding “MQRFVLRDWHYRGLSMSLMAQTDKPNIVIIMTDQQRADLCGREGFPLAVTPYVDQLAQENVWFNKAYTVAPASSPARCSMFTGRFPSATHVRTNHNIPDIFFEQDLVGVLKENGYKTALVGKNHAYLKPADLDFWSEYGHWGKNKKTTPEEKETARFLNQKARGQWLEPSPIPVEEQHPAKIVNETLSWIESQKENPFFVWVSFPEPHNPYQVCEPYYSMFSPDKLPVLKTSRKDLEKKGEKYRILAELEDASCPNLEQDLPRIRANYIGMIRLIDDQIKRLIESLKASGQFENTIFVVLSDHGDYWGEYGLIRKGAGLSESLARIPMVWAGYHVKNQSAPMDSHVSIADIFPTLCSAIGAKIPAGVQGRSLWPMLTGKEYPKEEFSSIVVQQGFGGAHVGLDSSLTFEQEGALTPGKIAYFDELNTWTQSGTSRMVRKDDWKLVMDNYGNGELYNLKKDPSEVDNLFGKKKYTAVQTELLTKLVAWELRLQDPLPLPRKRYHFKQDPYNYLQPEQLEHHHHHH”, the protein production result is given as “failed”.

For the sequence “MQRLLLASSLLLALSACSDKSAPANTADAAAPAAAPAATAPATAPELIPRDALFGNPERASVRISPDGKYLSWVAPLDGVLNVWVAPVDAPDKARAITKDTARGIRSYYWTYHSDTLLYLRDTGGDEDFHLYAVNLSDGSSKDLTPFKKTNAEVYGISDQHPDAIMVGMNDRDAKWHDLYKVELASGTRTLVQKNTDSLDSYLLDGNYQLRYATRATDDAGRELLVPEGKGWKSVDRIPFEDVTNTAPAGLTDDGKTLYMLDSRNRDTAALYAIDTASNARTLLFEDARADAGSTLNDPKTGVVQAVSTDYLREEWKTLDTSIAADLQKLKSLGPGDAGIAARTLDDRTWIVAYSAAETPLTYYRYDRADGGKLTKLFSARPALEGKPLVPMWPQEIAARDGLKLVSYLSLPAEADSNHDGKADKAVPLVLFVHGGPWARDSYGYGAYEQWLANRGYAVLSVNFRGSTGFGKAFTNAGNGEWAGKMHYDLLDAVQWAVKQGVTTPQDVAIMGGSYGGYATLVGMTFTPDAFKCGVDIVGPANLNTLLGTVPPYWASFYKQLTKRMGDPATAAGKQWLTERSPLSHVDKISKPLLIGQGANDPRVKQAESDQIVNAMKAKNIPVTYVLFPDEGHGFQRPENSKAFNAVTEGFLSQCLGGRAQPIGADFEGSSITVPEGADRITGLADALKTHTQAIRK”, the protein production result is listed as “failed”.

As to “MQRQGSGGGSAVIRVRVAGGVLLAAHLMLVVWITLRPLDVPWVSPANLHPFAGIRADLALGPREAVRRIGEGLGLLAPLGVLLPMVAGRLAVSPLASLTRTVAAGALISLGIELLQTGVPGQVVDVDSLLLNTVGVALAHLAIVPAGRARLRRRAETRRRAALGREELSQGLTPTIPRVGIAP”, the protein production result was “failed”.

As for “MQRRLERFDAKLVQSGLDALLVTGQNNIYYLTDFWGTNATVFITKNRRLFLTDSRYTLIAKQSVHGFDIIESKDPLKDIVKFVEVDKLETIGFDNQVSFAYYQALQAIFEGYTLSPQTNFMEELRMIKDEKELATIRKACSISDRAFTDVLDFIKPGQTTELQVANFLDFRMREYGASGISFESIIASGYRSAMPHGVASDKVIQSGETLTMDFGCYYNHYVSDMTRTIHIGETTDEEREIYDIVLRSNRALIDATKAGMTRRDYDKVARDVIVEAGYGDYFTHGIGHGIGLDIHEIPYFGNSDETIEAGMVLTDEPGIYLADKYGVRIEDDIIITENGCEVITLAPKELIVL”, the protein production entry is reported as “failed”.

Turning to “MQRYETTSVQNITQQYVHWFRHSAPYINAHRNKTLVLMFGGEAVQHPNFQHIIHDIALLHSLGIRLILVHGARPQINQNLQEKQIETPIHLHRRVTTRESLACVMNAVGSIRLEIEALLSMGLANSPMFGARIDVVSGNFVTAKPYGIRDGVDFQLTGEVRAIDTDAIQRHLDNHNIVVLGPTGYSTTGEVFNLLAEEVATKTATALHADKLIFLGKKQGLLSDQGKLLRELTPQQLEPYIKHFQQLDHEMALHLQGAQTASLSGVHRVHLISYAYDGALIEELFTRDGIGTMITDAHYEDVRTATIQDVGGLINLLRPLEEEGILVYRSRERLESEISQFAVIERDGMILACAALYPIPTAKNEIRSAEIACVAVDPAYRKSNRGSQILHFLEEKARQEGILQLFVLTTRTAHWFLEHGFQTASVDDLPSARQELYNYQRNSLVFKKILM”, the protein production result is “failed”.

With “MQSKAHALTFTVLPITQKTDQWSVKVSEAKNVKEFTRPHKGEYQVYSLGSQKYRGKSSYSGCAIVLEHHHHHH”, the protein production result is “not failed”.

Regarding “MQSSLSFSCGVKSTMAKSPVEVNLIPIEATPETFAEYGQVIEASRDGAGYGPNDAQLDLSKGIPRLYILRLKETPLGFFKITHHAKVTQCLGSIGGDIWYMGVAKPSLIEDDDDGRRVDTVKAKSGHLYIPPEVEEIRVFRFSGPKFVKLHRGTWHAGPLFSGSSIMDFYNLELSNTNVVDHTSHDFTKNNGVSFRFDT”, the protein production entry is reported as “failed”.

For “MQSTDLGNKESGKIWHRKPSPATHDGIIVNIVHSTSEYHPKVLRFLNVAFDGSGDSFIAGDHQGNIYVFDLHGNRFNLVQRTAQACTALAFNLRRKSEFLVALADYSIKCFDTVTKELVSWMRGHESSVCSISVHASGRYAITTSSDTAQLWDLDTFQRKRKLNIRQSVGIQKVFFLPLSNTILSCFKDNSIFAWECDTLFCKYQLPGPPEGSNILYKVFAVTRDGRILAAGGKSNHLHLWCLEATGLFRIIQMPAKVRAVRHLEFLPDSFDAGSNQVLGVLSQDGIMRFVNIQTCKLLFEIGTVEEGISSSVISPHGRYIASIMENGSLNVYSVQALTQEINKPPPPLVKVIEDLPSNTVSSSNLKMKIMPGRVQRPARCKESKIPTRVLKQDLTGDLENKENELSEGLNKKRLQILLKGYGEYPTKYRMFIWRSLLQLPENHTAFSSLVDKGTHAAYLSLQKKYPIKSRKLLRVLQRTLSALAHWSAIFSDTPYLPLLAFPFVKLFQNNQLICFEVVATLIINWCQHWFEYFPNPPINILSMIENVLAFHDKELLQHFIDRDITSQVYAWPLLETLFSEVLTREEWLRLFDNIFSNHPSFLLMTVVAYSTCSRAPLLNCTLKNDFEYFFHHRNNLDINVVIREVYHLMETTPADIHPNSMLDAFVALTKGQYPIFNQYPKFIVDYQTREWERIRNDELDFLRERQTVENMQAEVDEQRAKDEAWYQKQELLRRAEETRREILLQEEEKMAQQRQRLAAVKRELEIKEIHLQDAARRRLLKLQQDQREMELRRLEDEIERKVQMRDQEIAATAKDLEIRQLELEAQKRLYEKYSFSLSFMQNIV”, the protein production result is recorded as “failed”.

“MQTDEKLHVLLADDDPIMLARLSRQLEADGHHVASRRDGETALAYALEHQPEMVITDWHMKPMNGLELCRALRESALGGNVYIVMLTASESEDALVEAFGAGIDDYVIKPPSVRVLKARIRAGQRIITLHKKLARERKEIERYSSELAAANRRLELMAHTLEHHHHHH”: the protein production result is listed as “failed”.

“MQTLNDIYLAYLDSLNHQAFDELGTFVDDNVEHNGRPFGLSGYRDMLVKDFADIPDLRFEAEILVSDATRLAARLFFDCTPKSIFMDLPVNGRRVQFCEHVFYDFEQAKIRRVWSVLDKVAIERQLG”: the protein production entry is listed as “not failed”.

As to “MQTSFCVLVSIIERMPTWNDIKVRNPQHSHNYAKRWENLEAEGNDINGEARLIDALVQRGSKILDAGCGQGRVGGYLSARGHIVTGIDIDDYLISEAEKKFPSATWHVGDLGSESIPDQGFDIAVCAGNVITFIEPDKQEAALAHIFEALRPNGRCIIGFGAGRGYVFPQFFEDARNVGFVIENNFESWGLNPLTNRSQFLVAFLRKPELEHHHHHH”, the protein production result is listed as “failed”.

As to “MQVELIIKNLKVYNSYFKKFIKSDVLINEGKFLHIGKGYEDRLWSENIIDGEDKYIIPGLIDIHMHIESSMTIPREFSKAAIKHGVTTVVADPHEIANVFGVRGIEEFIKFKGNLDIFYGILEHHHHHH”, the protein production entry is recorded as “failed”.

In the case of “MQVFIMRHGDAALDAASDSVRPLTTNGCDESRLMANWLKGQKVEIERVLVSPFLRAEQTLEEVGDCLNLPSSAEVLPELTPCGDVGLVSAYLQALTNEGVASVLVISHLPLVGYLVAELCPGETPPMFTTSAIASVTLDESGKGEFNWQMSPCNLKMAKAI”, the protein production result is reported as “not failed”.

As for “MQVFLQGLLFGIVYIAPIGMQNLFVVSTAIEQPLQRALRVALIVIAFDTSLSLACFYGVGRLLQTTPWLELGVLLIGSLLVFYIGWNLLRKKATAMGTLDADFSYKAAILTAFSVAWLNPQALIDGSVLLAAFRVSIPAALTHFFMLGVILASIIWFIGLTSLISKFKHLMQPRVLLWINRICGGIIILYGVQLLATFITKI”, the protein production entry is “failed”.

On to “MQVISPSSPAPRFAGKERFSEVYGELNDDFGSKLKISSKEEENRDDDSWWNQNGTDKDDEGREEDFSFASVNADNSPITADEAFEDGQIRPVYPLFNRNIFFDDPEEKTLRSPLKKLFVESTTTEEEEEESDTVGPYCSWTNRTVEQASPETCRKSNSTGFSKLWRFRDLVLRSNSDGKDAFVFLSNGSSSTSSTSSTAARLSGVVKSSEKGKEKTKTDKKKDKMRTKSAHEKLYMRNRAMREEGKRRSYLPYKHVGFFTNVNGLTRNVHPY”, for which the protein production entry is recorded as “failed”.

Consider “MQVITSVKEAKQIVKDWKSHQLSIGYVPTMGFLHDGHLSLVKHAKTQDKVIVSIFVNPMQFGPNEDFSSYPRDLERDIKMCQDNGVDMVFIPDATQMYLKNFSTYVDMNTITDKLCGAKRPGHFRGVCTVLTKFFNILNPDIVYMGQKDAQQCVVVRHMVDDLNFDLKIQICPIIREEDGLAKSSRNVYLSKEERKASLAISQSIFLAEKLVREGEKNTSKIIQAMKDILEKEKLIKIDYIELVDFNTMENIENITDNVLGAVAAFVGKTRLIDNFLVQGLK”, for which the protein production result is “not failed”.
